Data published in the Human Domainome abundance scans (Beltran et al. 2025).
± gives the uncertainty stated by the source.

B1: Formin-binding protein 4, residues 593 to 636; numbered along this chain, Q8N3X1 (parent)
chain: EINATPKGWSCHWDRDHRRYFYVNEQSGESQWEFPDGEEEEEES

Variants of: B1
Experiment: abundance fitness (aPCA) (normalised: wild type 0, dead -1); higher = more abundant; growth selection in yeast, the domain comes from the species named
Conditions: Homo sapiens

EINATPKGWSCHWDRDHRRYFVVNEQSGESQWEFPDGEEEEEES [Y22V] and EINATPKGWSCHWDRDHRRYFEVNEQSGESQWEFPDGEEEEEES [Y22E] are within error of each other in abundance fitness: -0.692 ± 0.075 for the first, -0.482 ± 0.2 for the second.

EINATPKGWSCHWDRDHRRYFKVNEQSGESQWEFPDGEEEEEES [Y22K] and EINACPKGWSCHWDRDHRRYFYVNEQSGESQWEFPDGEEEEEES [T5C] are within error of each other in abundance fitness: 0.291 ± 0.34 for the first, 0.052 ± 0.15 for the second.

Going from EINATPKGWSCHWDCDHRRYFYVNEQSGESQWEFPDGEEEEEES [R15C] to EINATPKGWSCHWDRDHRRYFYVNEQSLESQWEFPDGEEEEEES [G28L], the abundance fitness falls from -0.204 ± 0.088 to -0.363 ± 0.071.

EINATPKGWSCHWDRDHRRYFYVNEQSGESQWETPDGEEEEEES [F34T] and EINATPKGWSCHWDRDHRRYFYVNEQSGESQWEPPDGEEEEEES [F34P] are within error of each other in abundance fitness: 0.013 ± 0.09 for the first, 0.071 ± 0.076 for the second.

EINATPKGWSCHWDRDHRRYFYVNEQSGESQWEVPDGEEEEEES [F34V] and EIDATPKGWSCHWDRDHRRYFYVNEQSGESQWEFPDGEEEEEES [N3D] are within error of each other in abundance fitness: -0.044 ± 0.07 for the first, 0.157 ± 0.34 for the second.

EINATPKGWSCHWDRDHRRYFYVNSQSGESQWEFPDGEEEEEES [E25S] and EINATPKGWSCHWDRDHRRYFYVNHQSGESQWEFPDGEEEEEES [E25H] are within error of each other in abundance fitness: -0.365 ± 0.14 for the first, -0.251 ± 0.12 for the second.

EINATPKGWSCHWDRDHRRYFYVNEQSGESQWEFWDGEEEEEES [P35W] and EINATPKGESCHWDRDHRRYFYVNEQSGESQWEFPDGEEEEEES [W9E] are within error of each other in abundance fitness: -0.782 ± 0.094 for the first, -0.661 ± 0.16 for the second.

EINATPKGWSCHWDRDHRRYFYVNEQSGESQWEFPDGEQEEEES [E39Q] and EINATPKGWSCHWDRDHRRYFYVNEQSGESQWEFPDGEGEEEES [E39G] are within error of each other in abundance fitness: 0.074 ± 0.078 for the first, -0.057 ± 0.063 for the second.

EINATPKGWSCHWDRDHRRYFYVNEQSGESQWEFPDGECEEEES [E39C] and EINATPKGWSCHWDRDHRRYFYVNEQSGESQWQFPDGEEEEEES [E33Q] are within error of each other in abundance fitness: 0.048 ± 0.1 for the first, -0.009 ± 0.085 for the second.

First: EINATPKGWSCHWDRDHRRYFYVNEQSGESQWYFPDGEEEEEES [E33Y]
Second: EINATPKIWSCHWDRDHRRYFYVNEQSGESQWEFPDGEEEEEES [G8I]
The abundance fitness of the first is lower: -0.892 ± 0.24 for the first, -0.496 ± 0.14 for the second.

Going from EINATPKMWSCHWDRDHRRYFYVNEQSGESQWEFPDGEEEEEES [G8M] to EINATPKGWSCHWDRDHRRYFYVNEQSGEFQWEFPDGEEEEEES [S30F], the abundance fitness rises from -0.605 ± 0.14 to -0.066 ± 0.36.

EINATPKGWSCHWDRDHRRYFYVNEQSGEAQWEFPDGEEEEEES [S30A] and EINATPKGWSCHWDRDHRRYFYVNEQSGEEQWEFPDGEEEEEES [S30E] are within error of each other in abundance fitness: 0.014 ± 0.071 for the first, -0.04 ± 0.084 for the second.

Going from EINATPKGWSCHWDRDHRRYFYVNEQSGEQQWEFPDGEEEEEES [S30Q] to EINATPKGWSCHWDRDHRRYFYVNEQKGESQWEFPDGEEEEEES [S27K], the abundance fitness falls from 0.15 ± 0.12 to -0.485 ± 0.18.

EINATPKGWSCHWDRDHRRYFYVNEQSGESQWEFPDIEEEEEES [G37I] and EINATPKGWSCHWDRDHRRYFYVNEQSGESQWEFPDHEEEEEES [G37H] are within error of each other in abundance fitness: -0.232 ± 0.14 for the first, -0.021 ± 0.12 for the second.

EINATPKGWSCHWDRDHRRYFYVNEQSGESQWEFPDREEEEEES [G37R] and EINATPKGWSCHWFRDHRRYFYVNEQSGESQWEFPDGEEEEEES [D14F] are within error of each other in abundance fitness: -0.222 ± 0.068 for the first, -0.75 ± 0.47 for the second.

Compared with EINATPKGWSCHWCRDHRRYFYVNEQSGESQWEFPDGEEEEEES [D14C], EINATPKGWSCHWQRDHRRYFYVNEQSGESQWEFPDGEEEEEES [D14Q] is lower in abundance fitness: -0.341 ± 0.13 for the first, -0.667 ± 0.15 for the second.

Compared with EINATPKGWSCHWDRDHRRYFYVNELSGESQWEFPDGEEEEEES [Q26L], EINATPKGWSCHQDRDHRRYFYVNEQSGESQWEFPDGEEEEEES [W13Q] is lower in abundance fitness: -0.137 ± 0.083 for the first, -0.546 ± 0.085 for the second.

EINATPKGWSCHWDRDHRRYFYVNEQSGESQWEFPDGEEEEDES [E42D] and EINATPKGWSCHWDRDHRRYFYVNEQSGESQWEFPDGEEEEGES [E42G] are within error of each other in abundance fitness: 0.038 ± 0.084 for the first, 0.122 ± 0.061 for the second.

EINATPKGWSCHWDRDHRRYFYVNEQSGESQWEFPDGEEEEERS [E43R] and EINATPKGWSCHWDRDHRRYFYVNEQSGTSQWEFPDGEEEEEES [E29T] are within error of each other in abundance fitness: -0.056 ± 0.077 for the first, -0.269 ± 0.3 for the second.

EINATPKGWSCHWDRDHRRYFYVNEQSGHSQWEFPDGEEEEEES [E29H] and EINATPKGWSCHWDRDHRRYFYVKEQSGESQWEFPDGEEEEEES [N24K] are within error of each other in abundance fitness: -0.016 ± 0.094 for the first, -0.23 ± 0.13 for the second.

Going from EINATPKGWSCHWDRDHRRYFYVNEQSGESQWEFPDGSEEEEES [E38S] to EINATPKGWSCHWDRDHRRYFYVNEQSGESQWEFPDGHEEEEES [E38H], the abundance fitness falls from 0.045 ± 0.07 to -0.2 ± 0.12.

EINATPKGWSCHWDRDHRRYFYVNEQSGESQWEFPDGCEEEEES [E38C] and EINVTPKGWSCHWDRDHRRYFYVNEQSGESQWEFPDGEEEEEES [A4V] are within error of each other in abundance fitness: -0.047 ± 0.071 for the first, -0.132 ± 0.096 for the second.

Compared with EINATPKGWSCGWDRDHRRYFYVNEQSGESQWEFPDGEEEEEES [H12G], EINATPKGWSCWWDRDHRRYFYVNEQSGESQWEFPDGEEEEEES [H12W] is lower in abundance fitness: -0.379 ± 0.075 for the first, -0.637 ± 0.094 for the second.

Compared with EINATPKGWSCHWDRDHRRYFYVNEQSGESQGEFPDGEEEEEES [W32G], EINATPKGWSCHWDRDHRRYLYVNEQSGESQWEFPDGEEEEEES [F21L] is higher in abundance fitness: -0.28 ± 0.061 for the first, -0.051 ± 0.083 for the second.

EINATPKGWSCHWDRDHRRYFYVNEQSGESQWEFPKGEEEEEES [D36K] and EINATPKGWSCHWDRDHRRYFYVNEQSGESQWEFPRGEEEEEES [D36R] are within error of each other in abundance fitness: -0.076 ± 0.12 for the first, -0.012 ± 0.062 for the second.

First: EINATPKGWSCHWDRDHRRYFYVNEQSGESQWEFPTGEEEEEES [D36T]
Second: EINATPKGWSCHWDRDHGRYFYVNEQSGESQWEFPDGEEEEEES [R18G]
The abundance fitness of the first is lower: -0.137 ± 0.081 for the first, 0.063 ± 0.061 for the second.

First: EINATPKGWSCHWDRDHLRYFYVNEQSGESQWEFPDGEEEEEES [R18L]
Second: EINATPKGWSCHWDRDHRRYFYVNEQSGESHWEFPDGEEEEEES [Q31H]
The abundance fitness of the first is higher: 0.016 ± 0.089 for the first, -0.47 ± 0.087 for the second.

Compared with EINATPKGWSCHWDRDHRRYFYVNEQSGESWWEFPDGEEEEEES [Q31W], EINATPKGWECHWDRDHRRYFYVNEQSGESQWEFPDGEEEEEES [S10E] is higher in abundance fitness: -0.613 ± 0.062 for the first, -0.381 ± 0.11 for the second.

EINATPKGWSCHWDRDHRRYFYVNEQSGESQWEFPDGEEAEEES [E40A] and EINATPKGWSCHWDRDHRRYFYVNEQSGESQWEFPDGEETEEES [E40T] are within error of each other in abundance fitness: 0.038 ± 0.067 for the first, 0.151 ± 0.1 for the second.
